# Test results: publication PMC6193675
# Target: VRC01
# Assay: FACS; competition with YU2 gp120dsm for 3 nM VRC01
substance,measurement,value
Bal gp120,Ki,5 nM
